Measured values taken from patent US20240117018A1.

Legend:
Experiment in all cases: cell-based or functional assay
[1] = target: Env of HIV-1 pseudovirus ZM53M.PB12 (HIV-1)
[2] = target: Env of HIV-1 pseudovirus CAP45.2.00.G3 (HIV-1)
[3] = target: Env of HIV-1 pseudovirus HIV-0013095-2.11 (HIV-1)
[4] = target: Env of HIV-1 pseudovirus Du172.17 (HIV-1)
[5] = target: Env of HIV-1 pseudovirus AC10.0.29 (HIV-1)
[6] = target: Env of HIV-1 pseudovirus CNE30 (HIV-1)
[7] = target: Env of HIV-1 pseudovirus 9004SS_A3_4 (HIV-1)
[8] = target: Env of HIV-1 pseudovirus 263-8 (HIV-1)
[9] = target: Env of HIV-1 pseudovirus 6535.3 (HIV-1)
[10] = target: Env of HIV-1 pseudovirus ZM109F.PB4 (HIV-1)
[11] = target: Env of HIV-1 pseudovirus 1394C9G1(Rev-) (HIV-1)
[12] = target: Env of HIV-1 pseudovirus HIV-001428-2.42 (HIV-1)
[13] = target: Env of HIV-1 pseudovirus ZM247v1(Rev-) (HIV-1)
[14] = target: Env of HIV-1 pseudovirus HIV-16845-2.22 (HIV-1)
[15] = target: HIV-1 Env pseudovirus Du422.1 (HIV-1)
[16] = target: HIV-1 Env pseudovirus PVO.4 (HIV-1)
[17] = target: HIV-1 Env pseudovirus BF1266.431a (HIV-1)
[18] = target: HIV-1 Env pseudovirus ZM109F.PB4 (HIV-1)
[19] = target: HIV-1 Env pseudovirus CNE17 (HIV-1)
[20] = target: HIV-1 Env pseudovirus CNE58 (HIV-1)
[21] = target: HIV-1 Env pseudovirus Ce1176_A3 (HIV-1)
[22] = target: HIV-1 Env pseudovirus 1394C9G1(Rev-) (HIV-1)
[23] = target: HIV-1 Env pseudovirus Q769.d22 (HIV-1)
[24] = target: HIV-1 Env pseudovirus 6535.3 (HIV-1)
[25] = target: HIV-1 Env pseudovirus CAP45.2.00.G3 (HIV-1)
[26] = target: HIV-1 Env pseudovirus Q842.d12 (HIV-1)
[27] = target: HIV-1 Env pseudovirus ZM214M.PL15 (HIV-1)
[28] = target: HIV-1 Env pseudovirus RHPA4259.7 (HIV-1)
[29] = target: HIV-1 Env pseudovirus 1054_07_TC4_1499 (HIV-1)
[30] = target: HIV-1 Env pseudovirus CNE53 (HIV-1)

Substance: PG9 (antibody)
- IC50 [1]: 0.069 µg/mL
- IC80 [1]: 0.221 µg/mL
- IC50 [2]: 0.007 µg/mL
- IC80 [2]: 0.029 µg/mL
- IC50 [3]: 0.01 µg/mL
- IC80 [3]: 0.03 µg/mL
- IC50 [4]: 0.606 µg/mL
- IC80 [4]: 1.6 µg/mL
- IC50 [5]: 0.117 µg/mL
- IC80 [5]: 0.845 µg/mL
- IC50 [6]: > 50 µg/mL
- IC80 [6]: > 50 µg/mL
- IC50 [7]: 0.088 µg/mL
- IC80 [7]: 0.251 µg/mL
- IC50 [8]: 0.293 µg/mL
- IC80 [8]: 1.05 µg/mL
- IC50 [9]: 0.176 µg/mL
- IC80 [9]: 0.627 µg/mL
- IC50 [10]: 0.256 µg/mL
- IC80 [10]: 6.69 µg/mL
- IC50 [11]: 0.029 µg/mL
- IC80 [11]: 0.114 µg/mL
- IC50 [12]: 0.101 µg/mL
- IC80 [12]: 0.25 µg/mL
- IC50 [13]: 0.112 µg/mL
- IC80 [13]: 0.323 µg/mL
- IC50 [14]: 4.4 µg/mL
- IC80 [14]: > 50 µg/mL

Substance: N49P18.1 (antibody)
- IC50 [15]: 21.5 µg/mL
- IC80 [15]: > 50 µg/mL
- MPI [15]: 75
- IC50 [16]: 9.65 µg/mL
- IC80 [16]: 40.2 µg/mL
- MPI [16]: 84
- IC50 [17]: 3.48 µg/mL
- IC80 [17]: 20.8 µg/mL
- MPI [17]: 93
- IC50 [18]: 26.6 µg/mL
- IC80 [18]: > 50 µg/mL
- MPI [18]: 69
- IC50 [19]: 39.7 µg/mL
- IC80 [19]: > 50 µg/mL
- MPI [19]: 56
- IC50 [20]: 1.92 µg/mL
- IC80 [20]: 5.26 µg/mL
- MPI [20]: 100
- IC50 [21]: 32.5 µg/mL
- IC80 [21]: > 50 µg/mL
- MPI [21]: 61
- IC50 [22]: > 50 µg/mL
- IC80 [22]: > 50 µg/mL
- MPI [22]: 17
- IC50 [23]: 4.92 µg/mL
- IC80 [23]: 18.3 µg/mL
- MPI [23]: 97
- IC50 [24]: 2.06 µg/mL
- IC80 [24]: 11.4 µg/mL
- MPI [24]: 100
- IC50 [25]: 5.14 µg/mL
- IC80 [25]: 33.1 µg/mL
- MPI [25]: 88
- IC50 [26]: 3.04 µg/mL
- IC80 [26]: 8.13 µg/mL
- MPI [26]: 100
- IC50 [27]: > 50 µg/mL
- IC80 [27]: > 50 µg/mL
- MPI [27]: 20
- IC50 [28]: 4.34 µg/mL
- IC80 [28]: 21.4 µg/mL
- MPI [28]: 98
- IC50 [29]: > 50 µg/mL
- IC80 [29]: > 50 µg/mL
- MPI [29]: 0
- IC50 [30]: 4.08 µg/mL
- IC80 [30]: 21.8 µg/mL
- MPI [30]: 97

Substance: 10E8 (antibody)
- IC50 [1]: 3.98 µg/mL
- IC80 [1]: > 10 µg/mL
- IC50 [2]: 1.82 µg/mL
- IC80 [2]: > 10 µg/mL
- IC50 [3]: 0.031 µg/mL
- IC80 [3]: 0.213 µg/mL
- IC50 [4]: 0.109 µg/mL
- IC80 [4]: 0.837 µg/mL
- IC50 [5]: 0.132 µg/mL
- IC80 [5]: 1.53 µg/mL
- IC50 [6]: 1.56 µg/mL
- IC80 [6]: 9.84 µg/mL
- IC50 [7]: 1.16 µg/mL
- IC80 [7]: 6.76 µg/mL
- IC50 [8]: 0.196 µg/mL
- IC80 [8]: 1.73 µg/mL
- IC50 [9]: 0.081 µg/mL
- IC80 [9]: 1.32 µg/mL
- IC50 [10]: 0.295 µg/mL
- IC80 [10]: 1.89 µg/mL
- IC50 [11]: 0.963 µg/mL
- IC80 [11]: 5.33 µg/mL
- IC50 [12]: 0.809 µg/mL
- IC80 [12]: 7.3 µg/mL
- IC50 [13]: 0.506 µg/mL
- IC80 [13]: 6.75 µg/mL
- IC50 [14]: 0.068 µg/mL
- IC80 [14]: 0.495 µg/mL

Substance: N49P11 (antibody)
- IC50 [15]: 8.81 µg/mL
- IC80 [15]: 21.2 µg/mL
- MPI [15]: 100
- IC50 [16]: 0.248 µg/mL
- IC80 [16]: 1.17 µg/mL
- MPI [16]: 100
- IC50 [17]: 0.998 µg/mL
- IC80 [17]: 7.13 µg/mL
- MPI [17]: 100
- IC50 [18]: 5.2 µg/mL
- IC80 [18]: 19.4 µg/mL
- MPI [18]: 100
- IC50 [19]: 6.68 µg/mL
- IC80 [19]: 25.6 µg/mL
- MPI [19]: 100
- IC50 [20]: 0.038 µg/mL
- IC80 [20]: 0.135 µg/mL
- MPI [20]: 100
- IC50 [21]: 0.946 µg/mL
- IC80 [21]: 6.05 µg/mL
- MPI [21]: 100
- IC50 [22]: 6.13 µg/mL
- IC80 [22]: 22.3 µg/mL
- MPI [22]: 100
- IC50 [23]: 0.048 µg/mL
- IC80 [23]: 0.308 µg/mL
- MPI [23]: 100
- IC50 [24]: 8.22 µg/mL
- IC80 [24]: 17.2 µg/mL
- MPI [24]: 100
- IC50 [25]: 5.25 µg/mL
- IC80 [25]: 24 µg/mL
- MPI [25]: 100
- IC50 [26]: 0.027 µg/mL
- IC80 [26]: 0.103 µg/mL
- MPI [26]: 100
- IC50 [27]: 1.35 µg/mL
- IC80 [27]: 8.98 µg/mL
- MPI [27]: 100
- IC50 [28]: 0.202 µg/mL
- IC80 [28]: 0.956 µg/mL
- MPI [28]: 100
- IC50 [29]: 2.92 µg/mL
- IC80 [29]: 13.1 µg/mL
- MPI [29]: 100
- IC50 [30]: 0.43 µg/mL
- IC80 [30]: 2.88 µg/mL
- MPI [30]: 100
